These results are taken from paper PMC4213368, “Elucidation of a protein-protein interaction network involved in Corynebacterium glutamicum cell wall biosynthesis as determined by bacterial two-hybrid analysis” (Glycoconjugate Journal, 2014).

Values joined by “and” are separate entries in the source; they are usually repeats but may differ in a detail not shown here. Equal values may be shown once.

What all share (experiment): two-hybrid; BACTH in E. coli BTH101, same co-transformants; β-galactosidase activity in Miller units, mean of 3 independent assays; negative control with empty vectors 86 ± 11 Miller units
Series [1] addresses DprE2 (Corynebacterium glutamicum ATCC 13032).
Series [2] concerns the target AftC (Corynebacterium glutamicum ATCC 13032) (UniProt Q8NPB7).
Series [3] addresses AftA (Corynebacterium glutamicum ATCC 13032) (UniProt Q8NTW4).
Series [4] deals with AftB (Corynebacterium glutamicum ATCC 13032) (UniProt Q8NLR0).
The target in series [5] is UbiA (Corynebacterium glutamicum ATCC 13032).
Series [6] concerns the target WecA (Corynebacterium glutamicum ATCC 13032).
For series [7], the target named is Emb (Corynebacterium glutamicum ATCC 13032).
Series [8] concerns the molecule itself.

Regarding DprE1 (enzyme), the β-galactosidase activity in series [1] was 637 Miller units and 1030 Miller units.

Turning to UbiA (enzyme), the figures for the β-galactosidase activity in series [2], in series [3] and in series [4] were 755 Miller units, 387 Miller units and 1020 Miller units, respectively.

On to WbbL (enzyme), for which the β-galactosidase activity in series [5] was 1090 Miller units and 1200 Miller units.

For the molecule WecA (enzyme), the β-galactosidase activity stood at 1050 Miller units in series [2]; 487 Miller units in series [6]; 1350 Miller units in series [7]; 1020 Miller units in series [5]; 1080 Miller units in series [4].

B1: AftA (enzyme, Corynebacterium glutamicum ATCC 13032, UniProt Q8NTW4 1-661, looked up)
chain: MNPYGPSRVPEGEVYRPDRLNRKATLVAIVGAAILAFAFALVLWMGLKQTNLPAFGPSNVTRAVASATIAAVLIVTGFLTWLWLRDEHQSNPRWELEDVKPRPKWRTALTYLASYLSPAALVVAVLAIPLSATRLYLDGISVDQGFRTQFLTRMADDIGLSDMNYIDMPTFYPAGWFWLGGRLANLLGLPGWEAFQPWAIVSMAVAASVLVPVWQRITGSLPVATGIALVTTCIILAMNSEEPYAAIVAMGIPAMLVLASRIAKGDKFALAGGIIYLGVSATFYTLFTGAIALSAVAVCIVVAAIVQRSIKPLLWLAVLGGGSIVIALISWGPYLLASINGAERSGDSATHYLPLEGTQFPVPFLASSVVGLLCLVGLIYLVVRFHNNEVRAMWVGIAVFYAWMGMSMAITLLGNTLLGFRLDTVLVLIFATAGVLGIADFRLASVYQLYPTQITERTATHLTNLIVVLVLLGGLYYAQDLPQKNARAIDLAYTDTDGYGERADLYPAGAARYYKDINDHLLDQGFEPSETVVLTDELDFMSYYPYRGYQAFTSHYANPLGEFGNRNAFIEDLAIRSWDELADPQQFSDALNTSPWTIPEVFIFRGSIDDPDAGWKYDVAEDLYPNNPNVRFRGVYFNPESFDQMWQTKQVGPFVVVTHNE
notes: AftA, arabinofuranosyltransferase, transmembrane, Corynebacterium glutamicum ATCC 13032; gene amplified from genomic DNA; One molecule for all four fusion forms; also called arabinofuranosyltransferase AftA; AftA-T25^N; source: E. coli BTH101, bacterial two-hybrid (BACTH) fusion; not shown: T25 or T18 fragment of Bordetella pertussis adenylate cyclase, N-terminal or C-terminal (each tested), kept
As to B1, the β-galactosidase activity in series [8] was 714 Miller units.

B2: AftB (enzyme, Corynebacterium glutamicum ATCC 13032, UniProt Q8NLR0 1-686, looked up)
chain: MTFSPQRPEFETGKQPDPETEHAGDFFEETSSSAPRAASNGSSGPNYTLITTFLAALTAGIFAFWAGWTRKWISDDGLIVLRTVRNLLAGNGPVFNAGERVEANTSTLWQYCIYLVALVTDYRLEDIALWLALLFTTAASIIGVLGTAHLHRKRIAVLLPAGVIGYFSLSPARDFATSGLEWGLSLMWISIQWLLLVLWATSGKTSGKKASGAKTSNPIVNAGAITYALAFWSGLSWLVRPELAMYGGLTGVLLLLTAPRWRVVLGILVAALPLPAAYQIFRMGYYGLMVPHTAVAKSASDAVWGTGWEYVEDFTGPYNLWLGLALLLAAGALTVWKTDKHLAIPKGRLGLRTPGMAIALLVICALVHFLYVIRVGGDFMHGRMLLLPLFAILLPVSVIPVNVVDRGWQDLVALVLVFSTWVWSTVVFVQGHQWENTGQHVVDERDFWIDFTNRDEDHPPLYAEDFLTVDSMNDYAEVMRDQTLVNPTGQQLNILASSDPTTYSWITTPRVEGVEAGDLANLSPTVFHVNLGMTSMNAPLNVRVTDLIGLATPLAARQPRIEGGRIGHDKLMDLEWQVAESATPLAYTPGWLDTQKTYEARQALRHPELVHLFQTYREPMSYHRFVDNIKYALTTGRTLEISDNPEDLLKEFNPTPAEIQDGLETIAWPGEIKLDEPRGEPLYSSQ
notes: AftB, arabinofuranosyltransferase, transmembrane, Corynebacterium glutamicum ATCC 13032; gene amplified from genomic DNA; One molecule for all four fusion forms; also called arabinofuranosyltransferase AftB; AftB-T25^N; source: E. coli BTH101, bacterial two-hybrid (BACTH) fusion; not shown: T25 or T18 fragment of Bordetella pertussis adenylate cyclase, N-terminal or C-terminal (each tested), kept
With B2, the β-galactosidase activity in series [8] was determined as 1180 Miller units.

B3: AftC (enzyme, Corynebacterium glutamicum ATCC 13032, UniProt Q8NPB7 1-418, looked up)
chain: MSFSPVAPSISAPTPRRSRWDSIGNAVAWPLAMLLMAHRFFVLAINGAVTDDFTTVYSALRRFVEGIPVYNEVYHFVDPHYLYNPGATLLLAPLGYITHFTLARWMFIAVNLLAIVLAFGLLTRLSGWALRSMVWPIAIALAMLTETVQNTLIFSNINGILLLMLAIFLWCVVHKKSWLGGLVIGLAILIKPMFLPLLFLPLVKKQWGSLILGILTPVIFNAVAWFLVPGASEYVTRTMPYLGETRDFANSSLPGLAIYFGMPTWMEITWFLIFGAMVGLAVLALLRFRNTEPYFWAATTTGVLLTGVFFLSSLGQMYYSMMIFPMIFTLLGSRSVFHNWVAWVAAYFFLSPDTFTSQRLPDVARWMEFFSATVGWGLLIVVTFVSALIWFIGDIRAKGTPSSPITTDPTHDHLERTA
notes: AftC, arabinofuranosyltransferase, transmembrane, Corynebacterium glutamicum ATCC 13032; gene amplified from genomic DNA; One molecule for all four fusion forms; also called arabinofuranosyltransferase AftC; AftC-T25^C; source: E. coli BTH101, bacterial two-hybrid (BACTH) fusion; not shown: T25 or T18 fragment of Bordetella pertussis adenylate cyclase, N-terminal or C-terminal (each tested), kept
B3: the β-galactosidase activity in series [8] turned out to be 398 Miller units.
